From paper PMC6215540, “Kinetic characterization of acetone monooxygenase from Gordonia sp. strain TY-5” (AMB Express, 2018) come the findings set out here.

Series [1] concerns the target T1, GSTACMO (Gordonia sp. TY-5, UniProt A1IHE6).
T1 construct: gene acmA; full-length with N-terminal GST tag kept (pGEX4T1), E. coli DH5alpha
The series can be described thus: stopped-flow flavin reduction at […] nm, hyperbolic fit of kobs. As to conditions: 50 mM HEPES pH 7.5, 20% glycerol, 25 °C, anaerobic; oxidized enzyme; text b56 prints 121; table labels it ACMO, done on GSTACMO; read-out: Measured values. The class given is biochemical.

In series [2] the target is T2, ACMO (Gordonia sp. TY-5, UniProt A1IHE6).
T2 construct: gene acmA; full-length, codon-optimised gene in pGEX4T1, E. coli DH5alpha; N-terminal GST removed with thrombin; calculated mass 59,780 Da
As to the kind of experiment: NADPH oxidation at […] nm, competitive inhibition fit. Format: biochemical. To be noted: read-out: Measured values.

For series [3], the target named is T1, GSTACMO. As to the kind of experiment: flavin absorbance titration at […] nm, quadratic fit. Format: binding.
Series [4] has as its target T3, ACMO (Gordonia sp. TY-5, UniProt A1IHE6, H325K).
T3 construct: gene acmA; full-length, codon-optimised gene in pGEX4T1, E. coli DH5alpha; N-terminal GST removed with thrombin; calculated mass 59,780 Da
As to the kind of experiment: NADPH oxidation at […] nm, competitive inhibition fit. The class given is biochemical. As to conditions: read-out: Measured values.

Series [5] concerns the target T4, GSTACMO (Gordonia sp. TY-5, UniProt A1IHE6, H325K).
T4 construct: gene acmA; full-length with N-terminal GST tag kept (pGEX4T1), E. coli DH5alpha
As to the kind of experiment: flavin absorbance titration at […] nm, quadratic fit. Format: binding.

The test system of a further series is CC(=O)Cc1ccccc1. As to the kind of experiment: purified protein. The class given is biochemical, Gordonia sp. TY-5. As to conditions: 100 µM NADPH, air-saturated 50 mM HEPES pH 7.5, 25 °C.
Substrate in series [6]: CC(=O)C(C)C
As to the kind of experiment: purified protein. The class given is biochemical, Gordonia sp. TY-5. As to conditions: 100 µM NADPH, air-saturated 50 mM HEPES pH 7.5, 25 °C.

Substrate in series [7]: CC(C)=O
The series can be described thus: purified protein. The class given is biochemical, Gordonia sp. TY-5. As to conditions: 100 µM NADPH, air-saturated 50 mM HEPES pH 7.5, 25 °C.

Substrate in series [8]: CC(C)C(=O)C(C)C
As to the kind of experiment: purified protein. As to conditions: 100 µM NADPH, air-saturated 50 mM HEPES pH 7.5, 25 °C. Format: biochemical, Gordonia sp. TY-5.

Substrate in series [9]: CCC(C)=O
As to the kind of experiment: purified protein. Format: biochemical, Gordonia sp. TY-5. To be noted: 100 µM NADPH.

Substrate in series [10]: CCCC(C)=O
As to the kind of experiment: purified protein. Format: biochemical, Gordonia sp. TY-5. To be noted: 100 µM NADPH, air-saturated 50 mM HEPES pH 7.5, 25 °C.

Substrate in series [11]: CCCCCC(C)=O
The series can be described thus: purified protein. Format: biochemical, Gordonia sp. TY-5. As to conditions: 100 µM NADPH, air-saturated 50 mM HEPES pH 7.5, 25 °C.

Substrate in series [12]: NC(=O)C1=CN([C@@H]2O[C@H](COP(=O)(O)OP(=O)(O)OC[C@H]3O[C@@H](n4cnc5c(N)ncnc54)[C@H](OP(=O)(O)O)[C@@H]3O)[C@@H](O)[C@H]2O)C=CC1
The series can be described thus: purified protein. As to conditions: 200 μM butanone. The class given is biochemical, Gordonia sp. TY-5.

Substrate in series [13]: O=C1CC2C=CCC12
As to the kind of experiment: purified protein. As to conditions: 100 µM NADPH, air-saturated 50 mM HEPES pH 7.5, 25 °C. The class given is biochemical, Gordonia sp. TY-5.

Substrate in series [14]: O=C1CCC1
The series can be described thus: purified protein. Format: biochemical, Gordonia sp. TY-5. To be noted: 100 µM NADPH, air-saturated 50 mM HEPES pH 7.5, 25 °C.

Substrate in series [15]: O=C1CCCC1
As to the kind of experiment: purified protein. Format: biochemical, Gordonia sp. TY-5. As to conditions: 100 µM NADPH, air-saturated 50 mM HEPES pH 7.5, 25 °C.

Substrate in series [16]: O=C1CCCCC1
The series can be described thus: purified protein. The class given is biochemical, Gordonia sp. TY-5. To be noted: 100 µM NADPH, air-saturated 50 mM HEPES pH 7.5, 25 °C.

[17] abbreviates: air-saturated 50 mM HEPES pH 7.5, 25 °C.
[18] abbreviates: 50 mM HEPES pH 7.5, 25 °C, GST tag state not told, table row identical to the NADPH row, possible duplication.
The mark [19] stands for this setting: 50 mM HEPES pH 7.5, 25 °C, GST tag state not told, table row identical to the butanone row, possible duplication.

Consider `NC(=O)C1=CN([C@@H]2O[C@H](COP(=O)(O)OP(=O)(O)OC[C@H]3O[C@@H](n4cnc5c(N)ncnc54)[C@H](OP(=O)(O)O)[C@@H]3O)[C@@H](O)[C@H]2O)C=CC1` [NADPH], for which the Kd at GSTACMO [1] was 120 ± 14 µM.

For the molecule `NC(=O)c1ccc[n+]([C@@H]2O[C@H](COP(=O)(O)OP(=O)(O)OC[C@H]3O[C@@H](n4cnc5c(N)ncnc54)[C@H](OP(=O)(O)O)[C@@H]3O)[C@@H](O)[C@H]2O)c1` [NADP^+], the Ki at ACMO [2] is 166 ± 13 µM; at ACMO [4], 27 ± 6 µM. Also, the Kd on GSTACMO [3] is 21.1 ± 4.1 µM; at GSTACMO [5] it was 0.5 ± 0.04 µM.

For ACMO (Gordonia sp. TY-5), in the series on CC(=O)Cc1ccccc1, the Km came out at 8.9 ± 1.5 µM, the turnover number (kcat) amounted to 1 ± 0.1 s⁻¹ and the kcat/Km is 112000 ± 20000 M⁻¹ s⁻¹.

B1: ACMO (Gordonia sp. TY-5) (protein)
chain: MSTTTLDAAVIGTGVAGLYELHMLREQGLEVRAYDKASGVGGTWYWNRYPGARFDSEAYIYQYLFDEDLYKGWSWSQRFPGQEEIERWLNYVADSLDLRRDISLETEITSAVFDEDRNRWTLTTADGDTIDAQFLITCCGMLSAPMKDLFPGQSDFGGQLVHTARWPKEGIDFAGKRVGVIGNGATGIQVIQSIAADVDELKVFIRTPQYALPMKNPSYGPDEVAWYKSRFGELKDTLPHTFTGFEYDFTDAWEDLTPEQRRARLEDDYENGSLKLWLASFAEIFSDEQVSEEVSEFVREKMRARLVDPELCDLLIPSDYGFGTHRVPLETNYLEVYHRDNVTAVLVRDNPITRIRENGIELADGTVHELDVIIMATGFDAGTGALTRIDIRGRDGRTLADDWSRDIRTTMGLMVHGYPNMLTTAVPLAPSAALCNMTTCLQQQTEWISEAIRHLRATGKTVIEPTAEGEEAWVAHHDELADANLISKTNSWYVGSNVPGKPRRVLSYVGGVGAYRDATLEAAAAGYKGFALS
notes: full-length, codon-optimised gene in pGEX4T1, E. coli DH5alpha; N-terminal GST removed with thrombin; calculated mass 59,780 Da
With B1, the Michaelis-Menten constant (Km) in the series “purified protein [6]” came out at 4.4 ± 0.5 µM; in the series “purified protein [7]”, 170 ± 11 µM; in “purified protein [8]” it was 1500 ± 220 µM; in the series “purified protein [9]” (setting [17]) it was 0.34 ± 0.03 µM; in the series “purified protein [10]”, 0.37 ± 0.06 µM; in “purified protein [11]”, 1.5 ± 0.1 µM. Besides, the Michaelis constant (Km) was 6.7 ± 0.8 µM in “purified protein [12]” (setting [17]); 6.7 ± 1.3 µM in “purified protein [13]”; 1.5 ± 0.2 µM in “purified protein [14]”; 120 ± 11 µM in “purified protein [15]”; 2400 ± 400 µM in “purified protein [16]”. Moreover, the catalytic constant (kcat) came to 2.2 ± 0.1 s⁻¹ in “purified protein [6]”; 1.4 ± 0.2 s⁻¹ in the series “purified protein [7]”; 1.5 ± 0.1 s⁻¹ in the series “purified protein [8]”; 2.1 ± 0.1 s⁻¹ in “purified protein [9]” (setting [17]); 1.9 ± 0.1 s⁻¹ in the series “purified protein [10]”; 3.9 ± 0.1 s⁻¹ in the series “purified protein [11]”. The turnover number (kcat) in the series “purified protein [12]” (setting [17]) turned out to be 2 ± 0.1 s⁻¹; in the series “purified protein [13]”, 1.5 ± 0.1 s⁻¹; in the series “purified protein [14]”, 2 ± 0.1 s⁻¹; in “purified protein [15]” it was 4.3 ± 0.1 s⁻¹; in the series “purified protein [16]”, 3.6 ± 0.2 s⁻¹. In addition, the catalytic efficiency (kcat/Km) in the series “purified protein [6]” was determined as 510000 ± 55000 M⁻¹ s⁻¹; in the series “purified protein [7]”, 8500 ± 590 M⁻¹ s⁻¹; in “purified protein [8]”, 1000 ± 150 M⁻¹ s⁻¹; in “purified protein [9]” (setting [17]), 6e+06 ± 550000 M⁻¹ s⁻¹; in “purified protein [10]”, 4.8e+06 ± 760000 M⁻¹ s⁻¹; in “purified protein [11]”, 2.6e+06 ± 130000 M⁻¹ s⁻¹. In addition, the specificity constant (kcat/Km) in the series “purified protein [12]” (setting [17]) was 300000 ± 36000 M⁻¹ s⁻¹; in the series “purified protein [13]” it was 220000 ± 45000 M⁻¹ s⁻¹; in “purified protein [14]”, 1.4e+06 ± 190000 M⁻¹ s⁻¹; in “purified protein [15]”, 35000 ± 3200 M⁻¹ s⁻¹; in “purified protein [16]”, 1500 ± 300 M⁻¹ s⁻¹.

B2: ACMO (Gordonia sp. TY-5; H325K) (protein)
chain: MSTTTLDAAVIGTGVAGLYELHMLREQGLEVRAYDKASGVGGTWYWNRYPGARFDSEAYIYQYLFDEDLYKGWSWSQRFPGQEEIERWLNYVADSLDLRRDISLETEITSAVFDEDRNRWTLTTADGDTIDAQFLITCCGMLSAPMKDLFPGQSDFGGQLVHTARWPKEGIDFAGKRVGVIGNGATGIQVIQSIAADVDELKVFIRTPQYALPMKNPSYGPDEVAWYKSRFGELKDTLPHTFTGFEYDFTDAWEDLTPEQRRARLEDDYENGSLKLWLASFAEIFSDEQVSEEVSEFVREKMRARLVDPELCDLLIPSDYGFGTKRVPLETNYLEVYHRDNVTAVLVRDNPITRIRENGIELADGTVHELDVIIMATGFDAGTGALTRIDIRGRDGRTLADDWSRDIRTTMGLMVHGYPNMLTTAVPLAPSAALCNMTTCLQQQTEWISEAIRHLRATGKTVIEPTAEGEEAWVAHHDELADANLISKTNSWYVGSNVPGKPRRVLSYVGGVGAYRDATLEAAAAGYKGFALS
notes: as for B1
As for B2, in “purified protein [9]” (setting [18]), the Michaelis-Menten constant (Km) is on record as 0.48 ± 0.05 µM, the kcat stood at 1.6 ± 0.1 s⁻¹ and the catalytic efficiency (kcat/Km) came to 3.25e+06 ± 320000 M⁻¹ s⁻¹. For the same molecule, in “purified protein [12]” (setting [19]), the Michaelis constant (Km) amounted to 0.48 ± 0.05 µM, the kcat stood at 1.6 ± 0.1 s⁻¹ and the kcat/Km is 3.25e+06 ± 320000 M⁻¹ s⁻¹.

B3: GSTACMO (Gordonia sp. TY-5) (protein)
chain: MSTTTLDAAVIGTGVAGLYELHMLREQGLEVRAYDKASGVGGTWYWNRYPGARFDSEAYIYQYLFDEDLYKGWSWSQRFPGQEEIERWLNYVADSLDLRRDISLETEITSAVFDEDRNRWTLTTADGDTIDAQFLITCCGMLSAPMKDLFPGQSDFGGQLVHTARWPKEGIDFAGKRVGVIGNGATGIQVIQSIAADVDELKVFIRTPQYALPMKNPSYGPDEVAWYKSRFGELKDTLPHTFTGFEYDFTDAWEDLTPEQRRARLEDDYENGSLKLWLASFAEIFSDEQVSEEVSEFVREKMRARLVDPELCDLLIPSDYGFGTHRVPLETNYLEVYHRDNVTAVLVRDNPITRIRENGIELADGTVHELDVIIMATGFDAGTGALTRIDIRGRDGRTLADDWSRDIRTTMGLMVHGYPNMLTTAVPLAPSAALCNMTTCLQQQTEWISEAIRHLRATGKTVIEPTAEGEEAWVAHHDELADANLISKTNSWYVGSNVPGKPRRVLSYVGGVGAYRDATLEAAAAGYKGFALS
notes: full-length with N-terminal GST tag kept (pGEX4T1), E. coli DH5alpha
With B3, in “purified protein [16]”, the Michaelis-Menten constant (Km) is 2300 ± 380 µM, the catalytic constant (kcat) is 2.8 ± 0.1 s⁻¹ and the specificity constant (kcat/Km) stood at 1200 ± 200 M⁻¹ s⁻¹.
